The values below come from patent US20240262929A1 (IBIO, published 2024).

Experiment [1] deals with T1, MUC16 on OVCAR-3 (MUC16high) and SKOV-3 (MUC16low) ovarian cancer cells (UniProt Q8WXI7 1-14507, limits assumed).
T1 construct: whole, on cells; also called MUC16high cells; MUC16low cells
The experiment is described as follows: cell binding on OVCAR3 cells (FIG. 9A).

The target of experiment [2] is T2, engineered epitope 2, 29-mer of MUC16 non-shed domain, aglycosylated (aglycosylated (produced synthetically); biotinylated for the Octet assay).
T2 peptide: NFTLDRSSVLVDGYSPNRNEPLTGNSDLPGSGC
The experiment is described as follows: ELISA; table columns appear swapped relative to plotted curves. In general terms: ELISA stands for enzyme-linked immunosorbent assay.

The target of experiment [3] is T3, engineered epitope 1, 58-mer of MUC16 non-shed domain, glycosylated (N-glycosylated (expressed in mammalian cells, used in glycosylated form); biotinylated for the Octet assay).
T3 peptide: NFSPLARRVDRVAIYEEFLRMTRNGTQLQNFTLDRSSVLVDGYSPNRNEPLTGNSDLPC
The experiment is described as above.

The target in experiment [4] is T4, 230-mer MUC16 shed domain (UniProt Q8WXI7 14164-14393, biotinylated for the Octet assay).
T4 construct: domain: 230-mer MUC16 shed domain
T4 sequence: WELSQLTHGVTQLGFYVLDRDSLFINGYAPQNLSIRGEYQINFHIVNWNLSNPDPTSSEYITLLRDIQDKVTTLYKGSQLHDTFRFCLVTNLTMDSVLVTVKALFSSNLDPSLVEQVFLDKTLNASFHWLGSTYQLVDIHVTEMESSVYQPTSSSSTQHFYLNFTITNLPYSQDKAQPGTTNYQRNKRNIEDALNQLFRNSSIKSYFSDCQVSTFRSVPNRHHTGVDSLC
Description: binding graphs of FIG. 10 (presumably BLI as for FIG. 5A).

Experiment [5] deals with T5, engineered epitope 2, 29-mer of MUC16 non-shed domain, aglycosylated (aglycosylated (produced synthetically); biotinylated for the Octet assay).
T5 peptide: T2 peptide
Described as above.

For experiment [6], the target named is T6, engineered epitope 1, 58-mer of MUC16 non-shed domain, glycosylated (N-glycosylated (expressed in mammalian cells, used in glycosylated form); biotinylated for the Octet assay).
T6 peptide: T3 peptide
The experiment is described as follows: hybridoma ELISA screen / dose-response (FIG. 8).

The target of experiment [7] is T4, 230-mer MUC16 shed domain. The experiment is described as follows: BLI (Octet), biotinylated 230-mer shed domain on streptavidin biosensor, increasing concentrations of purified antibody. The procedure: Methods: Biotinylated 29-mer engineered epitope, glycosylated 58-mer engineered epitope, 230-mer MUC16 shed domain and 288-mer MUC16 extra-cellular domain were immobilized on a Pall Octet 384-Red streptavidin biosensor. Immobilized biosensor tips were dipped into increasing concentration of purified antibody with a 4 minute association followed by a 3 minute dissociation.
For orientation: BLI is a label-free optical method that tracks binding on a fibre tip over time.

Experiment [8] addresses T2, engineered epitope 2, 29-mer of MUC16 …. The experiment is described as follows: ELISA.
The target in experiment [9] is T3, engineered epitope 1, 58-mer of MUC16 …. The experiment is described as follows: ELISA.
The target in experiment [10] is T1, MUC16 on OVCAR-3 (MUC16high) and SKOV-3 …. Description: flow cytometry, hybridoma supernatant on OVCAR-3 or SKOV-3 cells (FIG. 5B). The procedure:
Methods: Hybridoma supernatants were diluted 1:2 into FACS buffer containing OVCAR-3 or SKOV-3 cells and incubated for 30 minutes, then washed once with FACS buffer. 2 ug/mL APC labeled goat anti-mouse Fc secondary antibody diluted in FACS buffer was added to the cells and incubated for 20 minutes, then washed once with FACS buffer. Flow cytometry was performed with 20,000 cells per sample.
On the technique in general: Flow cytometry measures light scatter and fluorescence of single cells or particles in a stream.

Experiment [11] has as its target T6, engineered epitope 1, 58-mer of MUC16 …. The experiment is described as follows: ELISA dose-response (FIG. 3).
In experiment [12] the target is T5, engineered epitope 2, 29-mer of MUC16 …. The experiment is described as follows: ELISA dose-response (FIG. 3).
Experiment [13] addresses T6, engineered epitope 1, 58-mer of MUC16 …. The experiment is described as follows: ELISA dose-response (FIG. 6).
The target of experiment [14] is T5, engineered epitope 2, 29-mer of MUC16 …. Description: ELISA dose-response (FIG. 6).
Experiment [15] addresses T1, MUC16 on OVCAR-3 (MUC16high) and SKOV-3 …. The experiment is described as follows: flow cytometry on MUC16high and MUC16low cells (FIG. 7B).
The target of experiment [16] is T4, 230-mer MUC16 shed domain. Description: binding graphs of FIG. 7A (presumably BLI as for FIG. 5A).
Experiment [17] concerns the target T2, engineered epitope 2, 29-mer of MUC16 …. Description: ELISA.
The target in experiment [18] is T3, engineered epitope 1, 58-mer of MUC16 …. Description: ELISA.

B1: 21G6 anti-MUC16 clone (antibody, V domains shown)
VH: EVQLEESGPGLVKPSQSLSLTCTVTGYSITSDYAWNWIRQFPGNKLEWMGYISYSGSTIYNPSLKSRISITRDTSKNQFFLHLNSVTTEDTATYYCATLGLDYWGQGTTLTVSS
VL: DFVMTQSPSSLAVSVGEKVTMSCKSSQSLLYSSNQKNYLAWYQQKPGQSPKLLIYWASTRGSGVPDRFTGSGSGTDFTLTISSVKAEDLAVYYCQQYHSYRTFGGGTKLEIK
notes: Hybridoma antibody from immunized Balb/c mice; also called clone 21G6
The EC50 is the concentration that produces a half-maximal response. Lower therefore signals a more potent agent. As to B1, the binding result in [1] was “binds”; in experiment [4], “no binding”; in experiment [5] it was “binds”; in [6], “binds”. Further, the values for the EC50 in [2] and in [3] were 3400 pM and 680 pM, respectively.

B2: 1D7 anti-MUC16 clone (antibody, V domains shown)
VH: EVMLVESGGGLVKPGGSLKLSCVASGFTFSSFAMSWVRQTPEKRLEWVAIISSGGGYIYYADSMTGRFTISRDNAKNTLYLQMSSLRSEDTAMYYCARLGGDYDEFYAKDYWGQGTSVTVSS
VL: DIQMTQSSSSFSVSLGDRVTITCKASEDIYNRLAWYQQKPGNAPRLLISGATSLETGVPSRFSGSGSGKDYTLSITSLQTEDVATYYCQQYWSTWTFGGGTKLEIK
notes: Hybridoma antibody from immunized Balb/c mice; Used as purified antibody in BLI and as hybridoma supernatant in flow cytometry; also called clone 1D7
Regarding B2, the binding result in [7] was “no binding”; in experiment [10], “binds”; in [11], “binds”; in experiment [12], “binds”. The values for the EC50 in experiment [8] and in [9] were 560 pM and 510 pM, respectively.

B3: 8G4 anti-MUC16 clone (antibody, V domains shown)
VH: QIQLVQSGPELKMPGETVKISCKASGYTFTNFGMNWVKQAPGKALKWMGWINTNTGKPTYFEEFKGRFAFSLETSASTAYLQINNLKNEDTATYFCARRWDRSAWFAYWGQGTLVTVSA
VL: QAVVTQESALTTSPGETVTLTCRSSTGAVTTSNYANWVQEKPDHLFTGLIGGTNDRSPGVPARFSGSLIGDKAALTITGAQTEDEAIYFCALWYSNHWVFGGGTKLTVL
notes: Hybridoma antibody from immunized Balb/c mice; also called clone 8G4
For the molecule B3, the binding result was “binds” in experiment [13], “binds” in [14], “binds” in experiment [15] and “no binding” in experiment [16]. Moreover, the EC50 in [17] was found to be 230 pM; in experiment [18] it was 190 pM.
